The test has as its target GST-tagged Polo-box domain (PBD) of Plk1 (UniProt P53350). The test can be described thus: GST pull-down with anti-GFP immunoblot, band quantification. The following applies: mitotic lysates of U2OS cell lines; immobilized GST-Plk1-PBD; input levels set to 100%; parent: est. 56; read off a plot.
Chain of UniProt P53350 (P53350 326-603): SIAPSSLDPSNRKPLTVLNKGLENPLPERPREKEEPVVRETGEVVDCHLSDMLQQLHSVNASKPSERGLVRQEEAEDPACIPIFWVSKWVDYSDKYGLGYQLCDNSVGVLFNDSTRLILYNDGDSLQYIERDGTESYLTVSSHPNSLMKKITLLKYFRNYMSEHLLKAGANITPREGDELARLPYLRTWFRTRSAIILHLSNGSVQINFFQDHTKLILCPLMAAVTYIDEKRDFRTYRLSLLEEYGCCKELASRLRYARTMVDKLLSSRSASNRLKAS

“GFP-tagged murine 53BP1, wild type (from UniProt P70399) S376A”: the response is 10 % of input.

With “GFP-tagged murine 53BP1, wild type (from UniProt P70399) S1620A”, the response was 78 % of input.
